No end group written: not given here.
B1: Lynx1 linear (2), synthetic 15-membered loop II fragment of human Lynx1 (peptide)
peptide: TTRTYYTPTRMKVSK
B2: Lynx1 short (3), shorter loop II fragment of human Lynx1 with terminal Cys, disulfide-cyclised (peptide)
peptide: CTRTYYTPTRMC
modifications: not fully specified (bridges); cysteine pairing not given here
B3: Lynx1 short linear (4), shorter loop II fragment of human Lynx1 with free terminal Cys (peptide)
peptide: CTRTYYTPTRMC
B4: Lynx1 (1), synthetic loop II fragment of human Lynx1 with Cys added at both termini, disulfide-cyclised (peptide)
peptide: CTTRTYYTPTRMKVSKC
modifications: not fully specified (bridges); cysteine pairing not given here

Target: membrane-bound Torpedo californica nicotinic acetylcholine receptor (Torpedo californica)
Assay: radioligand binding

Sequence of membrane-bound Torpedo californica nicotinic acetylcholine receptor (Torpedo californica) (P02710 25-461 limits assumed, chain 1 of 4): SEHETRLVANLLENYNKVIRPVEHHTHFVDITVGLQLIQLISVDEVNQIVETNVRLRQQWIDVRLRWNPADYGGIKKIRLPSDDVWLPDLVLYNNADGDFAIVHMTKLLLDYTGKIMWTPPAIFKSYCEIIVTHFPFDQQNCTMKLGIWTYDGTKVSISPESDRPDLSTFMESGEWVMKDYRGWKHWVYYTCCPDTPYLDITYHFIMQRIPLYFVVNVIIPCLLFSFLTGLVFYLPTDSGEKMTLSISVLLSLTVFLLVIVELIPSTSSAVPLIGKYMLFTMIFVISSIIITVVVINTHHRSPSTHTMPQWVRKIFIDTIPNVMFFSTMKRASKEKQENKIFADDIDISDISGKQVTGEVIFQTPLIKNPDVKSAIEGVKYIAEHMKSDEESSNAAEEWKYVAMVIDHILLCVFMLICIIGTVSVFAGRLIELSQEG
Sequence of membrane-bound Torpedo californica nicotinic acetylcholine receptor (Torpedo californica) (P02712 25-493 limits assumed, chain 2 of 4, further chain): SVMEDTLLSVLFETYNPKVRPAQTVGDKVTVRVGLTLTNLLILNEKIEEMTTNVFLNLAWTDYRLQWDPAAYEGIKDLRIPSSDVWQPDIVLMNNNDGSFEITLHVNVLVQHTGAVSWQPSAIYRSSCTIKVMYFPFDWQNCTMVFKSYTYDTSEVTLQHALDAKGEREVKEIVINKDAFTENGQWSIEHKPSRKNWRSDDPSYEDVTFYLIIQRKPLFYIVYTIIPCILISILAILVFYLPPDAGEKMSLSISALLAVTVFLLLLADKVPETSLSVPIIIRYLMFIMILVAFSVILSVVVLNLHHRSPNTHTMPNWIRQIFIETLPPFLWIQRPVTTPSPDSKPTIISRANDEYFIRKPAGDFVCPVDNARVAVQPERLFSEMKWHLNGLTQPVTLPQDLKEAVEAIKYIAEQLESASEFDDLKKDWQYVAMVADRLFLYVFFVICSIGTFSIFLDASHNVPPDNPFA
Sequence of membrane-bound Torpedo californica nicotinic acetylcholine receptor (Torpedo californica) (P02714 18-506 limits assumed, chain 3 of 4, further chain): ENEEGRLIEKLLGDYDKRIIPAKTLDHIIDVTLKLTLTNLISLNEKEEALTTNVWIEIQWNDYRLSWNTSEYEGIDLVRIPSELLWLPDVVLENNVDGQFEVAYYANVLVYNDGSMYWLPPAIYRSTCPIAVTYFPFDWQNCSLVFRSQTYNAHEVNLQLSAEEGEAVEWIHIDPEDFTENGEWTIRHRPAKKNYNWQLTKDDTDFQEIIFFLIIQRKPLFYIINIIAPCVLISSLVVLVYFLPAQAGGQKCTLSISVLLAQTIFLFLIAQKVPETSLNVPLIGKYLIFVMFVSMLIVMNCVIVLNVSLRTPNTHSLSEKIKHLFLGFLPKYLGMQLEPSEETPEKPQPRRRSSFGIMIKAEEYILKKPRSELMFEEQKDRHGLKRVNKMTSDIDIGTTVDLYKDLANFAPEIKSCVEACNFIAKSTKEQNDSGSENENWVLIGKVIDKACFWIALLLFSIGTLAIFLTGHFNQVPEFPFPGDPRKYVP
Sequence of membrane-bound Torpedo californica nicotinic acetylcholine receptor (Torpedo californica) (P02718 22-522 limits assumed, chain 4 of 4, further chain): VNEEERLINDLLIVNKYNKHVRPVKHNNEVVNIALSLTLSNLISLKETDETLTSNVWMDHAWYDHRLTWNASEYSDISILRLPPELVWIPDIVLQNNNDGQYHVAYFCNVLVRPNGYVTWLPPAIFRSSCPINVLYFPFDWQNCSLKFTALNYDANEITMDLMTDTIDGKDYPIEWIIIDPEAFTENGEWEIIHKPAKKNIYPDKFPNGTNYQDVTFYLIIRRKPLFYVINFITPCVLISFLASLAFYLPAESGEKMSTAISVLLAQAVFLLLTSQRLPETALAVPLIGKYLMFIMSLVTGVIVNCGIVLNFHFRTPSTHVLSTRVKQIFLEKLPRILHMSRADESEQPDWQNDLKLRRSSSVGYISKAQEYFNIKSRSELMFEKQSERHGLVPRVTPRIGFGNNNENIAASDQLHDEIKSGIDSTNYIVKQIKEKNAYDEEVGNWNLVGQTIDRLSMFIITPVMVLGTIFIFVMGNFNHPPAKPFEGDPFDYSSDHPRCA

Row | IC50 | Binder
1 | 13.2 µM | B1
2 | 74.1 µM | B2
3 | 15.6 µM | B3
4 | 4.9 µM | B4

From paper PMC6616073
